Experimental data as given in US20250352624A1, “SUPEROXIDE DISMUTASE AND USES THEREOF FOR PREVENTING OR TREATING DRY EYE SYNDROME” (GENOFOCUS, INC., priority 2021, published 2025).

Tests used:
Type in all cases: in vivo
[1] = tested on: experimental dry eye (EDE)-induced C57BL/6 mouse model; assay: Tear film break-up time in experimental dry eye mice
Method: (§1) To induce experimental dry eye, 7- to 8-week-old C57BL/6 mice (purchased from Damool Science) were injected subcutaneously with scopolamine hydrochloride at 0.5 mg/0.2 ml three times a day under exposure to a ventilating device for 18 hours a day. The humidity was maintained at 30%, and the temperature was maintained at 25° C. The C57BL/6 mice were classified into 7 groups, depending on concentrations of the oral drug to be administered, as shown in Table 6.
(§2) After inducing experimental dry eye in the experimental mice, the drugs prepared in Example 3 were orally administered at 2 μL per dose once a day to the treatment groups (administered at 13:30 every day). In both eyes of all mice, at baseline, day 5, and day 10, tear volume and tear film break-up time were measured and corneal fluorescent staining score was examined. The mice were then sacrificed and tissue analysis was performed. Each group consisted of 6 animals.
To evaluate tear film stability, which is known to be the most important clinical factor in dry eye, tear film break-up time was measured. 1 μl of 1% fluorescent dye (fluorescein) was instilled into the lower conjunctival sac of each mouse, and then each mouse was allowed to blink about three times. Subsequently, the eyes were gently made open, and then the time (seconds) until the first defect occurred in the stained tear film was measured using a slit lamp microscope equipped with a cobalt blue filter. This was repeated three times to obtain the average value.

[2] = tested on: experimental dry eye (EDE)-induced C57BL/6 mouse model; assay: Apoptosis (TUNEL immunofluorescent staining); conditions: for number of necrotic cells in the cornea: TUNEL staining
Method: as §1
In both eyes of all mice, at baseline, day 5, and day 10, tear volume and tear film break-up time were measured and corneal fluorescent staining score was examined. The mice were then sacrificed and tissue analysis was performed. Each group consisted of 6 animals.
The eye and accessory tissues were excised from one eye of one animal in each group, fixed in 4% paraformaldehyde, embedded in paraffin, and then TUNEL staining was performed on two cross-sectional pieces of the tissue. […]

[3] = tested on: experimental dry eye (EDE)-induced C57BL/6 mouse model; assay: Malondialdehyde (MDA) by ELISA in cornea, conjunctiva and lacrimal gland; conditions: for MDA efficacy as compared with 0.05% CsA: 10 mg/kg oral
Method: as §1, §2
The corneas, conjunctivas, and lacrimal glands were excised from both eyes (6 eyes) of 3 animals in each group required for tissue analysis. The samples were homogenized in PBS, and then the lysates were centrifuged at 10000×g for 10 minutes at 4° C. The supernatant was taken and the total amount of protein was measured using the Bradford assay. MDA was detected using an ELISA (Enzyme-linked immunosorbent assay) kit (manufactured by Quantikine, R&D Systems, Minneapolis, MN) containing capture and detection antibodies according to the manufacturer's manual. Using ELISA, MDA levels in the cornea, conjunctiva, and lacrimal gland were measured and recorded, respectively.

[4] = tested on: experimental dry eye (EDE)-induced C57BL/6 mouse model; assay: Corneal fluorescent staining score in experimental dry eye mice; conditions: for corneal fluorescent staining score: total 0 to 16 points
Method: as §1, §2
1 μL of 1% fluorescent dye was instilled into the eyes of each mouse, followed by washing with saline. Subsequently, the cornea of each mouse was observed using a slit lamp microscope to score the degree of epithelial injury (the extent to which fluorescent staining occurred).

[5] = tested on: experimental dry eye (EDE)-induced C57BL/6 mouse model; assay: CD4+IFN-γ+ T cells by flow cytometry
Method: as §1, §2
The cornea, conjunctiva, and lacrimal gland were excised, sectioned with scissors, and then shaken with 0.5 mg/mL of collagenase type D (manufactured by Roche Applied Science, Indianapolis, IN, USA) at 37° C. for 60 minutes. The tissue was ground and then allowed to pass through a cell strainer, followed by centrifugation. The number of CD4+IFN-γ+T cells was calculated by performing flow cytometry with fluorescein-conjugated anti-CD4 antibody and phycoerythrin-conjugated anti-IFN-γ antibody, and the number of DCF-DA cells was calculated using the CM-H2DCFDA kit (manufactured by Thermo Fisher Scientific, Waltham, MA, USA).

[6] = tested on: experimental dry eye (EDE)-induced C57BL/6 mouse model; assay: Goblet cells in conjunctiva (PAS staining histology)
Method: as §1, §2
The eye and accessory tissues were excised from one eye of one animal in each group, fixed in 4% paraformaldehyde, embedded in paraffin, and then PAS staining was performed on two cross-sectional pieces of the tissue. In each piece, the density of goblet cells in the conjunctiva was calculated using a microscope and image analysis software.

[7] = tested on: experimental dry eye (EDE)-induced C57BL/6 mouse model; assay: Tear volume (phenol red thread) in experimental dry eye mice
Method: as §1, §2
Tear volume was determined as follows. A phenol red-impregnated cotton thread was brought into contact for 20 seconds with the conjunctival sac on the lateral canthus side of each mouse, and the length was measured using SMZ microscopy. Then, the measured length was converted into a volume by substituting it into a given formula (see Villareal A L, Farley W, Pflugfelder S C. Effect of topical ophthalmic epinastine and olopatadine on tear volume in mice. Eye Contact Lens. 2006; 32:272-6).

[8] = before drug administration, 2.5 mg/kg oral group
[9] = before drug administration, 5 mg/kg oral group
[10] = before drug administration, 10 mg/kg oral group
[11] = day 5 of administration, 2.5 mg/kg oral once a day
[12] = day 5 of administration, 5 mg/kg oral once a day
[13] = day 5 of administration, 10 mg/kg oral once a day
[14] = day 10 of administration, 2.5 mg/kg oral once a day
[15] = day 10 of administration, 5 mg/kg oral once a day
[16] = day 10 of administration, 10 mg/kg oral once a day
[17] = days 5 and 10, 0.05% CsA eye drop, SodA2 2.5, 5 and 10 mg/kg oral
[18] = conjunctiva, 2.5 mg/kg oral once a day
[19] = conjunctiva, 5 mg/kg oral once a day
[20] = conjunctiva, 10 mg/kg oral once a day
[21] = cornea, 2.5 mg/kg oral once a day
[22] = cornea, 5 mg/kg oral once a day
[23] = cornea, 10 mg/kg oral once a day

B1: SodA2: variant Mn-SOD of Bacillus amyloliquefaciens GF423 sodA, Asn73 and Asn136 replaced with Asp, SEQ ID NO: 4; given orally shellac-coated, mixed with dextrin (protein, listed as Bacillus amyloliquefaciens)
chain: MAYKLPELPYAYDALEPHIDKETMTIHHTKHHNTYVTNLNKAIEGSALAEKSVDELVADLNAVPEDIRTAVRDDGGGHANHSLFWTLLSPNGGGEPTGELAEEIKSTFGSFDQFKEKFAAAAAGRFGSGWAWLVVDDGKLEITSTPNQDSPLSEGKTPVLGLDVWEHAYYLNYQNRRPDYISAFWNVVNWDEVARLYSEAK
modifications: shellac coating; dextrin mixture
- tear film break-up time as compared with the 0.05% CsA group ([1]; 5 mg/kg and 10 mg/kg oral): similar
- tear film break-up time [1, 8]: 1.44 ± 0.15 s
- tear film break-up time [1, 9]: 1.42 ± 0.16 s
- tear film break-up time [1, 10]: 1.41 ± 0.25 s
- tear film break-up time [1, 11]: 1.23 ± 0.2 s
- tear film break-up time [1, 12]: 1.31 ± 0.3 s
- tear film break-up time [1, 13]: 1.28 ± 0.3 s
- tear film break-up time [1, 14]: 1.21 ± 0.3 s
- tear film break-up time [1, 15]: 1.28 ± 0.3 s
- tear film break-up time [1, 16]: 1.3 ± 0.3 s
- tear film break-up time as compared with the EDE and vehicle groups [1, 17]: significant increase
- number of necrotic cells in the cornea ([2]; 2.5 mg/kg oral once a day): 6.2±1.1 cells/100 μm
- number of necrotic cells in the cornea ([2]; 5 mg/kg oral once a day): 4.0±1.3 cells/100 μm
- number of necrotic cells in the cornea ([2]; 10 mg/kg oral once a day): 4.6±1.3 cells/100 μm
- number of dead cells in the cornea as compared with the EDE and vehicle groups ([2]; groups treated with CsA and oral SodA2): significantly decreased
- MDA efficacy as compared with 0.05% CsA ([3]; conjunctiva): superior
- MDA efficacy as compared with 0.05% CsA ([3]; cornea, lacrimal gland): similar
- MDA concentration, Conjunctiva [3, 18]: 21.5 ± 9.26 pmol/mL
- MDA concentration, Conjunctiva [3, 19]: 19.0 ± 7.17 pmol/mL
- MDA concentration, Conjunctiva [3, 20]: 16.3 ± 9.12 pmol/mL
- MDA concentration as compared with the EDE and vehicle groups ([3]; cornea, conjunctiva and lacrimal gland, CsA and oral SodA2 groups): decreased
- MDA concentration, Cornea [3, 21]: 22.7 ± 13.8 pmol/mL
- MDA concentration, Cornea [3, 22]: 20.2 ± 14.0 pmol/mL
- MDA concentration, Cornea [3, 23]: 18.5 ± 10.6 pmol/mL
- MDA concentration, Lacrimal gland ([3]; lacrimal gland, 2.5 mg/kg oral once a day): 22.6 ± 7.72 pmol/mL
- MDA concentration, Lacrimal gland ([3]; lacrimal gland, 5 mg/kg oral once a day): 18.8 ± 11.6 pmol/mL
- MDA concentration, Lacrimal gland ([3]; lacrimal gland, 10 mg/kg oral once a day): 22.5 ± 11.4 pmol/mL
- corneal fluorescent staining score as compared with the 0.05% CsA group ([4]; 5 mg/kg oral): more significant decrease
- corneal fluorescent staining score [4, 8]: 9.2±1.7 points
- corneal fluorescent staining score [4, 9]: 9.4±1.7 points
- corneal fluorescent staining score [4, 10]: 9.3±1.7 points
- corneal fluorescent staining score [4, 11]: 10.4±1.9 points
- corneal fluorescent staining score [4, 12]: 9.9±2.5 points
- corneal fluorescent staining score [4, 13]: 10.1±2.9 points
- corneal fluorescent staining score [4, 14]: 8.8±2 points
- corneal fluorescent staining score [4, 15]: 7.8±1.9 points
- corneal fluorescent staining score [4, 16]: 8.2±1.9 points
- corneal fluorescent staining score as compared with the EDE and vehicle groups [4, 17]: significant decrease
- proportion of CD4+IFN-γ+T cells [5, 18]: 21.00±0.63%
- proportion of CD4+IFN-γ+T cells [5, 19]: 22.87±2.47%
- proportion of CD4+IFN-γ+T cells [5, 20]: 25.83±0.27%
- proportion of CD4+IFN-γ+T cells as compared with the EDE and vehicle groups ([5]; cornea and conjunctiva, CsA and oral SodA2 groups): significant decrease
- proportion of CD4+IFN-γ+T cells as compared with the 0.05% CsA group ([5]; cornea, 2.5 mg/kg oral): significantly lower
- proportion of CD4+IFN-γ+T cells [5, 21]: 21.18±0.15%
- proportion of CD4+IFN-γ+T cells [5, 22]: 23.87±0.17%
- proportion of CD4+IFN-γ+T cells [5, 23]: 30.24±1.33%
- number of goblet cells in the conjunctiva ([6]; 2.5 mg/kg oral once a day): 27.9±6.9 cells/100 μm
- number of goblet cells as compared with the 0.05% CsA group ([6]; 5 mg/kg oral): more significant increase
- number of goblet cells in the conjunctiva ([6]; 5 mg/kg oral once a day): 35.8±10.2 cells/100 μm
- number of goblet cells in the conjunctiva ([6]; 10 mg/kg oral once a day): 32.2±3.9 cells/100 μm
- number of goblet cells in the conjunctiva, change in treatment groups ([6]; all treatment groups: 0.05% CsA, SodA2 2.5, 5 and 10 mg/kg oral): significant increase
- tear volume as compared with the 0.05% CsA group ([7]; 5 mg/kg oral): more significant increase
- tear volume [7, 8]: 0.024 ± 0.003 µL
- tear volume [7, 9]: 0.022 ± 0.004 µL
- tear volume [7, 10]: 0.023 ± 0.004 µL
- tear volume [7, 11]: 0.026 ± 0.005 µL
- tear volume [7, 12]: 0.026 ± 0.005 µL
- tear volume [7, 13]: 0.026 ± 0.005 µL
- tear volume [7, 14]: 0.027 ± 0.005 µL
- tear volume [7, 15]: 0.03 ± 0.005 µL
- tear volume [7, 16]: 0.028 ± 0.004 µL
- tear volume as compared with the EDE and vehicle groups [7, 17]: significant increase
